Molecular target: F-actin (rat (endogenous in MTLn3)) (UniProt P60711)
Assay: FLIP

tau of the slow FLIP component (assigned to F-actin-bound cofilin): 26 s
Substance: GFP-cofilin (from UniProt P45592 1-166) (natural protein)

From article PMC2140025
